Results: article PMC3896488, “Complex Regulation of PKCβ2 and PDK-1/AKT by ROCK2 in Diabetic Heart” (PLoS ONE, 2014)

Target: Protein kinase C β2 (rat (endogenous in Wistar rat heart), UniProt P68403-2 1-673)
Test: cell-based or functional assay

Protein kinase C β2, sequence (P68403 other isoform, or with tags, fused parts or gaps): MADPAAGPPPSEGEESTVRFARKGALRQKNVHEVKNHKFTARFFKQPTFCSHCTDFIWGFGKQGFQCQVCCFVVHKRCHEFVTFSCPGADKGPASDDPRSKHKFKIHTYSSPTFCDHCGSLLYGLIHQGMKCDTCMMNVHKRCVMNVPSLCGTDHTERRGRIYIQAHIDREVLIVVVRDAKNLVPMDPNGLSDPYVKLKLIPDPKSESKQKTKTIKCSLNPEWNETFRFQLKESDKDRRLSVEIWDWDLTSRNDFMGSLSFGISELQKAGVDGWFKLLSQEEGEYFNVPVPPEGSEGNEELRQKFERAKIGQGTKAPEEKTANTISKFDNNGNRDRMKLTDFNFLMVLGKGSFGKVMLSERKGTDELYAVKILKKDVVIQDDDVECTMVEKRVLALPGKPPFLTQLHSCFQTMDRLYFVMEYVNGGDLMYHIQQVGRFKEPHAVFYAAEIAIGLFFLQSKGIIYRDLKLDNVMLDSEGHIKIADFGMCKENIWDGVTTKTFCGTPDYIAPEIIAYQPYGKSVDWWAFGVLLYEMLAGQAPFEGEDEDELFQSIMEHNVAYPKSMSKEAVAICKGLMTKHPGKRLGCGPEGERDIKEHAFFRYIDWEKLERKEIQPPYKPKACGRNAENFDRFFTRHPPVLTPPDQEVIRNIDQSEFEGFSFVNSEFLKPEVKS

in vitro phosphorylation of dephosphorylated PKCβ2 at T641 with against without active ROCK2 (molar ratio 1:30, 400 µM ATP, 37°C, 45 min), Western blot: ~2 fold
B1: ROCK2 (enzyme, rat (endogenous in Wistar rat heart), UniProt Q62868 1-1388, looked up)
chain: MSRPPPTGKMPGAPEAAAGDGAGAGRQRKLEALIRDPRSPINVESLLDGLNSLVLDLDFPALRKNKNIDNFLNRYEKIVKKIRGLQMKAEDYDVVKVIGRGAFGEVQLVRHKASQKVYAMKLLSKFEMIKRSDSAFFWEERDIMAFANSPWVVQLFCAFQDDRYLYMVMEYMPGGDLVNLMSNYDVPEKWAKFYTAEVVLALDAIHSMGLIHRDVKPDNMLLDKHGHLKLADFGTCMKMDETGMVHCDTAVGTPDYISPEVLKSQGGDGYYGRECDWWSVGVFLFEMLVGDTPFYADSLVGTYSKIMDHKNSLCFPEDTEISKHAKNLICAFLTDREVRLGRNGVEEIKSASFFKNDQWNWDNIRETAAPVVPELSSDIDSSNFDDIEDDKGDVETFPIPKAFVGNQLPFIGFTYFRENLLLSDSPPCRENDAIQTRKSEESQEIQKKLYALEEHLSSEVQAKEELEQKCKSINTRLEKTAKELEEEITFRKNVESTLRQLEREKALLQHKNAEYQRKADHEADKKRNLENDVNSLKDQLEDLKKRNQSSQISTEKVNQLQKQLDEANALLRTESDTAARLRKTQAESSKQIQQLESNNRDLQDKNCLLETAKLKLEKEFINLQSALESERRDRTHGSEIINDLQGRISGLEEDLKTGKTLLAKVELEKRQLQEKLTDLEKEKSNMEIDMTYQLKVIQQSLEQEEAEHKTTKARLADKNKIYESIEEAKSEAMKEMEKKLLEERSLKQKVENLLLEAEKRCSILDCDLKQSQQKLNELLKQKDVLNEDVRNLTLKIEQETQKRCLMQNDLKMQTQQVNTLKMSEKQIKQENNHLMEMKMNLEKQNAELRKERQDADGQMKELQDQLEAEQYFSTLYKTQVRELKEENEEKTKLCKELQQKKQDLQDERDSLAAQLEITLTKADSEQLARSIAEEQYSDLEKEKIMKELEIKEMMARHKQELTEKDATIASLEETNRTLTSDVANLANEKEELNNKLKDTQEQLSKLKDEEISAAAIKAQFEKQLLTERTLKTQAVNKLAEIMNRKEPVKRGSDTDVRRKEKENRKLHMELKSEREKLTQQMIKYQKELNEMQAQIAEESQIRIELQMTLDSKDSDIEQLRSQLQALHIGMDSSSIGSGPGDAEPDDGFPESRLEGWLSLPVRNNTKKFGWVKKYVIVSSKKILFYDSEQDKEQSNPYMVLDIDKLFHVRPVTQTDVYRADAKEIPRIFQILYANEGESKKEPEFPVEPVGEKSNYICHKGHEFIPTLYHFPTNCEACMKPLWHMFKPPPALECSRCHIKCHKDHMDKKEEIIAPCKVYYDISSAKNLLLLANSTEEQQKWVSRLVKKIPKKPPAPDPFARSSPRTSMKIQQNQSIRRPSRQLAPNKPS
